B1: HA-SNAP-mGluR2 [modified: SNAP tag labelled with BG-LD555 (BG-LD655 in two-colour SiMPull); SNAP tag labelled with BG-LD555 (BG-LD655 in two-colour SiMPull)] [rat] / itself (parent complex)
chain: EGPAKKVLTLEGDLVLGGLFPVHQKGGPAEECGPVNEHRGIQRLEAMLFALDRINRDPHLLPGVRLGAHILDSCSKDTHALEQALDFVRASLSRGADGSRHICPDGSYATHSDAPTAVTGVIGGSYSDVSIQVANLLRLFQIPQISYASTSAKLSDKSRYDYFARTVPPDFFQAKAMAEILRFFNWTYVSTVASEGDYGETGIEAFELEARARNICVATSEKVGRAMSRAAFEGVVRALLQKPSARVAVLFTRSEDARELLAATQRLNASFTWVASDGWGALESVVAGSERAAEGAITIELASYPISDFASYFQSLDPWNNSRNPWFREFWEERFHCSFRQRDCAAHSLRAVPFEQESKIMFVVNAVYAMAHALHNMHRALCPNTTHLCDAMRPVNGRRLYKDFVLNVKFDAPFRPADTDDEVRFDRFGDGIGRYNIFTYLRAGSGRYRYQKVGYWAEGLTLDTSFIPWASPSAGPLPASRCSEPCLQNEVKSVQPGEVCCWLCIPCQPYEYRLDEFTCADCGLGYWPNASLTGCFELPQEYIRWGDAWAVGPVTIACLGALATLFVLGVFVRHNATPVVKASGRELCYILLGGVFLCYCMTFVFIAKPSTAVCTLRRLGLGTAFSVCYSALLTKTNRIARIFGGAREGAQRPRFISPASQVAICLALISGQLLIVAAWLVVEAPGTGKETAPERREVVTLRCNHRDASMLGSLAYNVLLIALCTLYAFKTRKCPENFNEAKFIGFTMYTTCIIWLAFLPIFYVTSSDYRVQTTTMCVSVSLSGSVVLGCLFAPKLHIILFQPQKNVVSHRAPTSRFGSAAPRASANLGQGSGSQFVPTVCNGREVVDSTTSSL
B2: HA-SNAP-mGluR3-C127A [modified: SNAP tag labelled with BG-LD555 (BG-LD655 in two-colour SiMPull); SNAP tag labelled with BG-LD555 (BG-LD655 in two-colour SiMPull)] [rat] / itself (parent complex)
chain: LGDHNFMRREIKIEGDLVLGGLFPINEKGTGTEECGRINEDRGIQRLEAMLFAIDEINKDNYLLPGVKLGVHILDTCSRDTYALEQSLEFVRASLTKVDEAEYMAPDGSYAIQENIPLLIAGVIGGSYSSVSIQVANLLRLFQIPQISYASTSAKLSDKSRYDYFARTVPPDFYQAKAMAEILRFFNWTYVSTVASEGDYGETGIEAFEQEARLRNICIATAEKVGRSNIRKSYDSVIRELLQKPNARVVVLFMRSDDSRELIAAANRVNASFTWVASDGWGAQESIVKGSEHVAYGAITLELASHPVRQFDRYFQSLNPYNNHRNPWFRDFWEQKFQCSLQNKRNHRQVCDKHLAIDSSNYEQESKIMFVVNAVYAMAHALHKMQRTLCPNTTKLCDAMKILDGKKLYKEYLLKINFTAPFNPNKGADSIVKFDTFGDGMGRYNVFNLQQTGGKYSYLKVGHWAETLSLDVDSIHWSRNSVPTSQCSDPCAPNEMKNMQPGDVCCWICIPCEPYEYLVDEFTCMDCGPGQWPTADLSGCYNLPEDYIKWEDAWAIGPVTIACLGFLCTCIVITVFIKHNNTPLVKASGRELCYILLFGVSLSYCMTFFFIAKPSPVICALRRLGLGTSFAICYSALLTKTNCIARIFDGVKNGAQRPKFISPSSQVFICLGLILVQIVMVSVWLILETPGTRRYTLPEKRETVILKCNVKDSSMLISLTYDVVLVILCTVYAFKTRKCPENFNEAKFIGFTMYTTCIIWLAFLPIFYVTSSDYRVQTTTMCISVSLSGFVVLGCLFAPKVHIVLFQPQKNVVTHRLHLNRFSVSGTATTYSQSSASTYVPTVCNGREVLDSTTSSL

Variants of: B1
Experiment: SiMPull; shaded bar, data repeated from Figure 1F; read off a plot

Variant	screen value
chain 1 C103A	~91%

Variants of: B2
Experiment: SiMPull; SNAP-tagged constructs labeled with LD555; 6 movies; read off a plot

Variant	screen value
chain 1 S664A, chain 1 F668A, chain 1 G672A	~74%

Source: paper PMC8102066 (2021)
